Experiment [1] addresses LRP6 (endogenous) (human) (UniProt O75581). Description: TAP (anti-FLAG, anti-HA) + mass spectrometry, bait stably expressed in LS174T cells, Exp 2, prey LRP6.
The target of experiment [2] is Lgr5 (endogenous, or expression construct whose tag is not stated) (human) (UniProt O75473). The experiment in a line: TAP (anti-FLAG, anti-HA) + mass spectrometry, bait stably expressed in LS174T cells, Exp 2, prey LGR5.
Experiment [3] concerns the target Frz7 (endogenous, LS174T cells) (human) (UniProt O75084). The experiment in a line: TAP (anti-FLAG, anti-HA) + mass spectrometry, bait stably expressed in LS174T cells, Exp 2, prey Frzd7.
Experiment [4] concerns the target Frz5 (endogenous, LS174T cells) (human) (UniProt Q13467). The experiment in a line: TAP (anti-FLAG, anti-HA) + mass spectrometry, bait stably expressed in LS174T cells, Exp 2, prey Frzd5.
Experiment [5] concerns the target Frz6 (endogenous, LS174T cells) (human) (UniProt O60353). Description: TAP (anti-FLAG, anti-HA) + mass spectrometry, bait stably expressed in LS174T cells, Exp 5, prey Frzd6.
Experiment [6] addresses LRP6 (endogenous) (human) (UniProt O75581). Description: TAP (anti-FLAG, anti-HA) + mass spectrometry, bait stably expressed in LS174T cells, Exp 4, prey LRP6.
The target in experiment [7] is LRP5 (endogenous) (human) (UniProt O75197). Description: TAP (anti-FLAG, anti-HA) + mass spectrometry, bait stably expressed in LS174T cells, Exp 4, prey LRP5.
Experiment [8] concerns the target LRP6 (endogenous) (human) (UniProt O75581). The experiment in a line: TAP (anti-FLAG, anti-HA) + mass spectrometry, bait stably expressed in LS174T cells, Exp 5, prey LRP6.
Experiment [9] concerns the target LRP5 (endogenous) (human) (UniProt O75197). Description: TAP (anti-FLAG, anti-HA) + mass spectrometry, bait stably expressed in LS174T cells, Exp 5, prey LRP5.
The target in experiment [10] is LRP6 (endogenous) (human) (UniProt O75581). The experiment in a line: TAP (anti-FLAG, anti-HA) + mass spectrometry, bait stably expressed in LS174T cells, Exp 3, prey LRP6.
Experiment [11] addresses Frz6 (endogenous, LS174T cells) (human) (UniProt O60353). The experiment in a line: TAP (anti-FLAG, anti-HA) + mass spectrometry, bait stably expressed in LS174T cells, Exp 4, prey Frzd6.
Experiment [12] has the same target. The experiment in a line: TAP (anti-FLAG, anti-HA) + mass spectrometry, bait stably expressed in LS174T cells, Exp 3, prey Frzd6.
In experiment [13] the target is LRP5 (endogenous) (human) (UniProt O75197). The experiment in a line: TAP (anti-FLAG, anti-HA) + mass spectrometry, bait stably expressed in LS174T cells, Exp 6, prey LRP5.
Experiment [14] concerns the target Frz6 (endogenous, LS174T cells) (human) (UniProt O60353). The experiment in a line: TAP (anti-FLAG, anti-HA) + mass spectrometry, bait stably expressed in LS174T cells, Exp 6, prey Frzd6.
The target in experiment [15] is Lgr4 (endogenous, or expression construct whose tag is not stated) (human) (UniProt Q9BXB1). Description: cell-based or functional assay.
Experiment [16] deals with LRP5 (endogenous) (human) (UniProt O75197). The experiment in a line: TAP (anti-FLAG, anti-HA) + mass spectrometry, bait stably expressed in LS174T cells, Exp 7, prey LRP5.
The target in experiment [17] is LRP6 (endogenous) (human) (UniProt O75581). Description: TAP (anti-FLAG, anti-HA) + mass spectrometry, bait stably expressed in LS174T cells, Exp 7, prey LRP6.
Experiment [18] deals with Lgr4 (endogenous, or expression construct whose tag is not stated) (human) (UniProt Q9BXB1). Description: TAP (anti-FLAG, anti-HA) + mass spectrometry, bait stably expressed in LS174T cells, Exp 7, prey LGR4.
In experiment [19] the target is Lgr5 (endogenous, or expression construct whose tag is not stated) (human) (UniProt O75473). Description: TAP (anti-FLAG, anti-HA) + mass spectrometry, bait stably expressed in LS174T cells, Exp 7, prey LGR5.

Chain of LRP6 (endogenous) (human) (O75581 20-1613): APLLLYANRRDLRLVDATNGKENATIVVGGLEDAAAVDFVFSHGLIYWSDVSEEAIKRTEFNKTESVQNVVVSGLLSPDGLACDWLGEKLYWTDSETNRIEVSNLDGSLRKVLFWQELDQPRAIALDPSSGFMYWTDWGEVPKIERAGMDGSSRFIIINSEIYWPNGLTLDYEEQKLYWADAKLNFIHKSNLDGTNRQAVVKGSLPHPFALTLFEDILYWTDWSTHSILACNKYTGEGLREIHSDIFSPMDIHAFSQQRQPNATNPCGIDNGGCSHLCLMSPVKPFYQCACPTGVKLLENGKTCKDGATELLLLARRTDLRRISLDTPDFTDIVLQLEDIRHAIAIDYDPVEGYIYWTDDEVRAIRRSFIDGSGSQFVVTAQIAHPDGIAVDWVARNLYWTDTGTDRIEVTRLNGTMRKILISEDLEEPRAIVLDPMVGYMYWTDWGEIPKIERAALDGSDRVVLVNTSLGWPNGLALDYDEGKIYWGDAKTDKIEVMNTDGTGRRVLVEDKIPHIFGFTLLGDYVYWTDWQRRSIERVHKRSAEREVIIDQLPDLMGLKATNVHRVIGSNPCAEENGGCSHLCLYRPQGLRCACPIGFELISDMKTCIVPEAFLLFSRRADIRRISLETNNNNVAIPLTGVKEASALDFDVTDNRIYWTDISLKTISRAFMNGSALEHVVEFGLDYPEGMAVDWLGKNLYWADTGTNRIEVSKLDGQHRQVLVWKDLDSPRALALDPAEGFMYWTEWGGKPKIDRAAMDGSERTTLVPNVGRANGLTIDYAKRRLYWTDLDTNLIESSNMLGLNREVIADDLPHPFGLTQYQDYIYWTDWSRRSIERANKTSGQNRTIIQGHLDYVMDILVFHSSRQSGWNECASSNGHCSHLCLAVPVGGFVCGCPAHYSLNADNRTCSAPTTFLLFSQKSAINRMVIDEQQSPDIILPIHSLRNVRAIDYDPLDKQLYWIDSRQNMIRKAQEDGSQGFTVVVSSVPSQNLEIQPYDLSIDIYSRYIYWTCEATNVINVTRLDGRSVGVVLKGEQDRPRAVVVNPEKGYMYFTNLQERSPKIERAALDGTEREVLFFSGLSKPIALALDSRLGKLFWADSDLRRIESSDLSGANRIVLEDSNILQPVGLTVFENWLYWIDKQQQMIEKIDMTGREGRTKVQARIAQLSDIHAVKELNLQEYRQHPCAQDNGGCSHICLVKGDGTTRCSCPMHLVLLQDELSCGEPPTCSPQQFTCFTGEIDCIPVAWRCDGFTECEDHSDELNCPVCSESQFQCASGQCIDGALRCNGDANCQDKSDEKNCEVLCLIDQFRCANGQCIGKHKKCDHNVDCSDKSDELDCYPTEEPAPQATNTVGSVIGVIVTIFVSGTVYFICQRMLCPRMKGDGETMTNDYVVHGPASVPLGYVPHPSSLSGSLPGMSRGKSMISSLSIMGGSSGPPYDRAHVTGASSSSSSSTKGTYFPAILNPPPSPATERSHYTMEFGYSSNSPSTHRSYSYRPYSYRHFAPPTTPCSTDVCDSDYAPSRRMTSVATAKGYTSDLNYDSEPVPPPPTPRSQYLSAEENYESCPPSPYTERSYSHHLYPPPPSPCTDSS
Chain of Lgr5 (endogenous, or expression construct whose tag is not stated) (human) (O75473 22-907): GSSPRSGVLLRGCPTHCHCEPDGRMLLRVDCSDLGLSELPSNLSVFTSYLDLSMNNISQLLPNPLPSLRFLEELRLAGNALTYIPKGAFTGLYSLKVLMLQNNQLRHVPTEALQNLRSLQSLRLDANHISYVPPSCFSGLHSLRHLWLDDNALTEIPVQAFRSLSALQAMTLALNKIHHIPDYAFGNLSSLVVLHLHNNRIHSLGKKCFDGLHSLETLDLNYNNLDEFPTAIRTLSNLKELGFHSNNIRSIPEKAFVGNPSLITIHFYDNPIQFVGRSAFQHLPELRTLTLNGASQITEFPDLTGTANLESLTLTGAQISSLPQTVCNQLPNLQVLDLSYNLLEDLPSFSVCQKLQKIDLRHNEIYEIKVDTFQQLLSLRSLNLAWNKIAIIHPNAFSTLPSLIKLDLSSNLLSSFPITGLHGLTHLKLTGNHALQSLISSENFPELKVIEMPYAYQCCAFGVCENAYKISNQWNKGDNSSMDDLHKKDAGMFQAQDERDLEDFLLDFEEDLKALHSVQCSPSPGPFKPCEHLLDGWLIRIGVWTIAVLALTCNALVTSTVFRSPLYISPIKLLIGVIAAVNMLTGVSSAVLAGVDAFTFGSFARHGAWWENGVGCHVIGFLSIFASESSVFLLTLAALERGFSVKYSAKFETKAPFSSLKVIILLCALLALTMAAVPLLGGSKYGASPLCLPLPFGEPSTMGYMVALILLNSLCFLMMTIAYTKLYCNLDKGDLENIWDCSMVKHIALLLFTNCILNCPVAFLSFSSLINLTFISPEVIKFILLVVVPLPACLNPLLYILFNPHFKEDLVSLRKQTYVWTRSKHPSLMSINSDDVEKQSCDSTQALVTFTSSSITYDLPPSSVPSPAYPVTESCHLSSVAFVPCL
Chain of Frz5 (endogenous, LS174T cells) (human) (Q13467 27-585): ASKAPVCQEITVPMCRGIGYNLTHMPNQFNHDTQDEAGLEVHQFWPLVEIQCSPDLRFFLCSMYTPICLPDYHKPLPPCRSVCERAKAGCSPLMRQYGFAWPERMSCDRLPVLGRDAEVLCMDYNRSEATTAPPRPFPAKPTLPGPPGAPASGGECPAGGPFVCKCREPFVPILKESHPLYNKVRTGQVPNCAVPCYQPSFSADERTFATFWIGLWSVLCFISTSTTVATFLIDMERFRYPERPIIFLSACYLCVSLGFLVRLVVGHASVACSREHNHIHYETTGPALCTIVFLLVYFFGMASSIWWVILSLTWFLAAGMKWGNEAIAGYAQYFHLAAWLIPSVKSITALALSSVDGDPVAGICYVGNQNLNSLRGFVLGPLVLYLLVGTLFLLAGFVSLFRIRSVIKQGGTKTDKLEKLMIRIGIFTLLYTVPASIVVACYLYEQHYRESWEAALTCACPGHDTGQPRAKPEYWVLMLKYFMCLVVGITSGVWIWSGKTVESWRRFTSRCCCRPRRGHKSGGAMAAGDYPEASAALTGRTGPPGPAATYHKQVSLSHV
Chain of LRP5 (endogenous) (human) (O75197 32-1615): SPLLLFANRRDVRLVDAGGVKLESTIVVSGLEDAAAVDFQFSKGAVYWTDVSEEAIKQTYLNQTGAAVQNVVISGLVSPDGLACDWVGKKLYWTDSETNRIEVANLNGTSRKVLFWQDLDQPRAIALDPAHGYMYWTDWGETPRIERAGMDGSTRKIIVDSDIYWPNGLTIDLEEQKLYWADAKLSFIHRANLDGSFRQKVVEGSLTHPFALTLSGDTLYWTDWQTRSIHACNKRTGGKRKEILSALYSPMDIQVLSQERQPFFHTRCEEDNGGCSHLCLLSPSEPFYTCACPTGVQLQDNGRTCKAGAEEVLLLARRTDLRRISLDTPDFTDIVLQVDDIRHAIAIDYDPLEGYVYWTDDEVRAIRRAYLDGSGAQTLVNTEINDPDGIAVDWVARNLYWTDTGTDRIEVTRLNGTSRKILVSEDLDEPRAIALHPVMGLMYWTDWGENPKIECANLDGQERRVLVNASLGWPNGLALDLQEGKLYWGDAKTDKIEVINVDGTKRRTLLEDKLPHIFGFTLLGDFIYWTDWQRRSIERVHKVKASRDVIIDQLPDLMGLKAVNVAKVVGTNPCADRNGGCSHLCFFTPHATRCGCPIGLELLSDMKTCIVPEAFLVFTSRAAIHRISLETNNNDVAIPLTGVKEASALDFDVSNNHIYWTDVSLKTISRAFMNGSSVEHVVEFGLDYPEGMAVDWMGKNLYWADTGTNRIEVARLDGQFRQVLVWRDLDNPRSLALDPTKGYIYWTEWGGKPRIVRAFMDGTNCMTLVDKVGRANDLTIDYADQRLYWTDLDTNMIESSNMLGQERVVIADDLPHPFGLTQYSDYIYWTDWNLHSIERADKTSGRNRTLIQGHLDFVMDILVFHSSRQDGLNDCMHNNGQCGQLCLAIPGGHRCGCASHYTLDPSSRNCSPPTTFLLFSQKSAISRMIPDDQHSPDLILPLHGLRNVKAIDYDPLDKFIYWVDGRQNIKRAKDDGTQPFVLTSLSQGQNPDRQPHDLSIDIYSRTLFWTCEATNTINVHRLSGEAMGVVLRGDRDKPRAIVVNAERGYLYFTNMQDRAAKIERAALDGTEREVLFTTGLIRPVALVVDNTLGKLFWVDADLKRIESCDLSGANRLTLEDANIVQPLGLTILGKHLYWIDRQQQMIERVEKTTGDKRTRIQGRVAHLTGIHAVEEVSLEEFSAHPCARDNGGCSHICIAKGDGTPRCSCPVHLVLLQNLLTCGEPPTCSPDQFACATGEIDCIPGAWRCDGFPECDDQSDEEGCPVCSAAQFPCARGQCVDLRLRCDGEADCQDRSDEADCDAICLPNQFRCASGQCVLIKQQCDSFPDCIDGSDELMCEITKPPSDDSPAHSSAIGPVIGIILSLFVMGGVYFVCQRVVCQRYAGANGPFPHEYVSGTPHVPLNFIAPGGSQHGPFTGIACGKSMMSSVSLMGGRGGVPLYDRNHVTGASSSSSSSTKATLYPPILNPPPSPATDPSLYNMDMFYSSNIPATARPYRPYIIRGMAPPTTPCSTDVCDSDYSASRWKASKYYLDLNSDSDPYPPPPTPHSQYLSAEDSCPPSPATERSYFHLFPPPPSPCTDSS

As to “FLAG/HA-tagged Lgr4 (from UniProt Q9BXB1 25-951) (receptor)”, the # unique peptides in experiment [1] was determined as 3; in experiment [2], 7; in experiment [3] it was 1; in [4] it was 1. Besides, the MASCOT Protein score (MudPit) in [1] turned out to be 32; in experiment [2], 62; in [3], 87; in experiment [4], 22. Besides, the assigned spectra stood at 3 in experiment [1], 10 in experiment [2], 4 in [3] and 1 in [4].

For the substance “FLAG/HA-tagged Lgr5 (from UniProt O75473 22-907) (receptor)”, the # unique peptides in experiment [5] was found to be 6; in [6], 2; in experiment [7] it was 2; in experiment [8], 6; in [9], 3; in [10], 3. Besides, the # unique peptides amounted to 1 in [11], 1 in experiment [12], 1 in experiment [13] and 5 in experiment [14]. Also, the MASCOT Protein score (MudPit) turned out to be 193 in [5]; 43 in [6]; 91 in [7]; 91 in experiment [8]; 122 in experiment [9]; 71 in experiment [10]. The MASCOT Protein score (MudPit) in experiment [11] was 94; in experiment [12], 53; in experiment [13], 41; in experiment [14], 140. Further, the assigned spectra was determined as 11 in experiment [5]; 2 in [6]; 3 in experiment [7]; 6 in experiment [8]; 3 in experiment [9]; 3 in experiment [10]. The assigned spectra in experiment [11] is 2; in [12], 1; in experiment [13] it was 1; in [14], 8.

In experiment [15], “Rspo-1 (as added in the TOPflash assay of FIG. 5B) (from UniProt Q2MKA7 21-263) (ligand)” showed a TOPFlash activity, Wnt3A with Rspo-1 against Wnt3A alone, HEK293T cells of 12 fold.

As to “tagged Frizzled5 (Frz5) (from UniProt Q13467 27-585) (receptor)”, the # unique peptides in experiment [16] was determined as 3; in experiment [17], 10; in experiment [18], 10; in [19], 2. For the same substance, the MASCOT Protein score (MudPit) in [16] was determined as 166; in experiment [17] it was 279; in experiment [18], 456; in experiment [19], 33. The assigned spectra in [16] was 5; in [17], 14; in experiment [18] it was 30; in [19], 2.

The record behind these values is patent US20140044713A1.
